The results in this text go back to publication PMC12382605, “Dominant negative ADA2 mutations cause ADA2 deficiency in heterozygous carriers” (The Journal of Experimental Medicine, 2025).

Series [1] deals with the molecule itself. Kind of series: native gel or EMSA; supernatant of HEK293T transfected with one ADA2 construct (homozygous condition), collected after 48 h; NativePAGE 4-16% Bis-Tris, western blot with anti-ADA2; dimer band quantified relative to WT100%. For orientation: In EMSA bound probe runs differently from free probe, usually more slowly.
The target of series [2] is T1, human WT ADA2, myc-FLAG-tagged (pCMV6) (human, UniProt Q9NZK5-1 30-511).
T1 sequence (looked up): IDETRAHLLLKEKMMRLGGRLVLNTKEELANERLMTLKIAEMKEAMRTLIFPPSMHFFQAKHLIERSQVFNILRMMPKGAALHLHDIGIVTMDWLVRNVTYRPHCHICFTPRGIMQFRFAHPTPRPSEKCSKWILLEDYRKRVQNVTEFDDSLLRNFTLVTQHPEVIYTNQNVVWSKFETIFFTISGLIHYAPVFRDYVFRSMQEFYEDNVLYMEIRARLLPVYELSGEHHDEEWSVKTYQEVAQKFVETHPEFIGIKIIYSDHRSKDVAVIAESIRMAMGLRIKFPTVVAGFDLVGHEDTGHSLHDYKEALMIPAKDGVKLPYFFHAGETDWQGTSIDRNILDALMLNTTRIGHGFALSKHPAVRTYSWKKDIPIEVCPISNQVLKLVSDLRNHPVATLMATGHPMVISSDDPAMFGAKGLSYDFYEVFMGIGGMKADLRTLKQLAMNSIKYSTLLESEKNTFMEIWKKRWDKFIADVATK
Kind of series: cell-based or functional assay.

B1: ADA2 variant G47A, myc-FLAG-tagged (pCMV6) (enzyme, human, UniProt Q9NZK5-1 30-511, looked up)
chain: IDETRAHLLLKEKMMRLAGRLVLNTKEELANERLMTLKIAEMKEAMRTLIFPPSMHFFQAKHLIERSQVFNILRMMPKGAALHLHDIGIVTMDWLVRNVTYRPHCHICFTPRGIMQFRFAHPTPRPSEKCSKWILLEDYRKRVQNVTEFDDSLLRNFTLVTQHPEVIYTNQNVVWSKFETIFFTISGLIHYAPVFRDYVFRSMQEFYEDNVLYMEIRARLLPVYELSGEHHDEEWSVKTYQEVAQKFVETHPEFIGIKIIYSDHRSKDVAVIAESIRMAMGLRIKFPTVVAGFDLVGHEDTGHSLHDYKEALMIPAKDGVKLPYFFHAGETDWQGTSIDRNILDALMLNTTRIGHGFALSKHPAVRTYSWKKDIPIEVCPISNQVLKLVSDLRNHPVATLMATGHPMVISSDDPAMFGAKGLSYDFYEVFMGIGGMKADLRTLKQLAMNSIKYSTLLESEKNTFMEIWKKRWDKFIADVATK
notes: adenosine deaminase 2 (ADA2), human; site-directed mutant of the WT clone of transcript 3, NM_001282225 (OriGene RC238645); Pathogenic variant that occurs in patients; also called p.G47A; source: HEK293T, transfected; in supernatant and whole-cell lysate
In the case of B1, in series [1], the “residual dimer in the supernatant (% of WT100%)” value (from here on “residual dimer … (% of WT100%)”) is ~48 % of WT100%. Also, the “adenosine deaminase activity of whole-cell lysate and supernatant of HEK293T cotransfected with WT and variant ADA2 (heterozygous), relative to WT50%” value in series [2] is < 75 % of WT50%.

B2: ADA2 variant Y453C, myc-FLAG-tagged (pCMV6) (enzyme, human, UniProt Q9NZK5-1 30-511, looked up)
chain: IDETRAHLLLKEKMMRLGGRLVLNTKEELANERLMTLKIAEMKEAMRTLIFPPSMHFFQAKHLIERSQVFNILRMMPKGAALHLHDIGIVTMDWLVRNVTYRPHCHICFTPRGIMQFRFAHPTPRPSEKCSKWILLEDYRKRVQNVTEFDDSLLRNFTLVTQHPEVIYTNQNVVWSKFETIFFTISGLIHYAPVFRDYVFRSMQEFYEDNVLYMEIRARLLPVYELSGEHHDEEWSVKTYQEVAQKFVETHPEFIGIKIIYSDHRSKDVAVIAESIRMAMGLRIKFPTVVAGFDLVGHEDTGHSLHDYKEALMIPAKDGVKLPYFFHAGETDWQGTSIDRNILDALMLNTTRIGHGFALSKHPAVRTYSWKKDIPIEVCPISNQVLKLVSDLRNHPVATLMATGHPMVISSDDPAMFGAKGLSCDFYEVFMGIGGMKADLRTLKQLAMNSIKYSTLLESEKNTFMEIWKKRWDKFIADVATK
Regarding B2, the “adenosine deaminase activity of whole-cell lysate and supernatant of HEK293T cotransfected with WT and variant ADA2 (heterozygous), relative to WT50%” value in series [2] was 41 % of WT50%.

B3: ADA2 variant G47R, myc-FLAG-tagged (pCMV6) (enzyme, human, UniProt Q9NZK5-1 30-511, looked up)
chain: IDETRAHLLLKEKMMRLRGRLVLNTKEELANERLMTLKIAEMKEAMRTLIFPPSMHFFQAKHLIERSQVFNILRMMPKGAALHLHDIGIVTMDWLVRNVTYRPHCHICFTPRGIMQFRFAHPTPRPSEKCSKWILLEDYRKRVQNVTEFDDSLLRNFTLVTQHPEVIYTNQNVVWSKFETIFFTISGLIHYAPVFRDYVFRSMQEFYEDNVLYMEIRARLLPVYELSGEHHDEEWSVKTYQEVAQKFVETHPEFIGIKIIYSDHRSKDVAVIAESIRMAMGLRIKFPTVVAGFDLVGHEDTGHSLHDYKEALMIPAKDGVKLPYFFHAGETDWQGTSIDRNILDALMLNTTRIGHGFALSKHPAVRTYSWKKDIPIEVCPISNQVLKLVSDLRNHPVATLMATGHPMVISSDDPAMFGAKGLSYDFYEVFMGIGGMKADLRTLKQLAMNSIKYSTLLESEKNTFMEIWKKRWDKFIADVATK
notes: adenosine deaminase 2 (ADA2), human; site-directed mutant of the WT clone of transcript 3, NM_001282225 (OriGene RC238645); Patient variant; also called p.G47R; source: HEK293T, transfected; in supernatant and whole-cell lysate
Regarding B3, the “residual dimer … (% of WT100%)” value in series [1] is ~53 % of WT100%. In addition, the “adenosine deaminase activity of whole-cell lysate and supernatant of HEK293T cotransfected with WT and variant ADA2 (heterozygous), relative to WT50%” value in series [2] was < 75 % of WT50%.

B4: ADA2 variant G47W, myc-FLAG-tagged (pCMV6) (enzyme, human, UniProt Q9NZK5-1 30-511, looked up)
chain: IDETRAHLLLKEKMMRLWGRLVLNTKEELANERLMTLKIAEMKEAMRTLIFPPSMHFFQAKHLIERSQVFNILRMMPKGAALHLHDIGIVTMDWLVRNVTYRPHCHICFTPRGIMQFRFAHPTPRPSEKCSKWILLEDYRKRVQNVTEFDDSLLRNFTLVTQHPEVIYTNQNVVWSKFETIFFTISGLIHYAPVFRDYVFRSMQEFYEDNVLYMEIRARLLPVYELSGEHHDEEWSVKTYQEVAQKFVETHPEFIGIKIIYSDHRSKDVAVIAESIRMAMGLRIKFPTVVAGFDLVGHEDTGHSLHDYKEALMIPAKDGVKLPYFFHAGETDWQGTSIDRNILDALMLNTTRIGHGFALSKHPAVRTYSWKKDIPIEVCPISNQVLKLVSDLRNHPVATLMATGHPMVISSDDPAMFGAKGLSYDFYEVFMGIGGMKADLRTLKQLAMNSIKYSTLLESEKNTFMEIWKKRWDKFIADVATK
notes: adenosine deaminase 2 (ADA2), human; site-directed mutant of the WT clone of transcript 3, NM_001282225 (OriGene RC238645); Pathogenic variant that occurs in patients; source: HEK293T, transfected, in supernatant
For the molecule B4, the “residual dimer … (% of WT100%)” value in series [1] was ~9 % of WT100%.

B5: ADA2 variant R169Q, myc-FLAG-tagged (pCMV6) (enzyme, human, UniProt Q9NZK5-1 30-511, looked up)
chain: IDETRAHLLLKEKMMRLGGRLVLNTKEELANERLMTLKIAEMKEAMRTLIFPPSMHFFQAKHLIERSQVFNILRMMPKGAALHLHDIGIVTMDWLVRNVTYRPHCHICFTPRGIMQFRFAHPTPRPSEKCSKWILLEDYQKRVQNVTEFDDSLLRNFTLVTQHPEVIYTNQNVVWSKFETIFFTISGLIHYAPVFRDYVFRSMQEFYEDNVLYMEIRARLLPVYELSGEHHDEEWSVKTYQEVAQKFVETHPEFIGIKIIYSDHRSKDVAVIAESIRMAMGLRIKFPTVVAGFDLVGHEDTGHSLHDYKEALMIPAKDGVKLPYFFHAGETDWQGTSIDRNILDALMLNTTRIGHGFALSKHPAVRTYSWKKDIPIEVCPISNQVLKLVSDLRNHPVATLMATGHPMVISSDDPAMFGAKGLSYDFYEVFMGIGGMKADLRTLKQLAMNSIKYSTLLESEKNTFMEIWKKRWDKFIADVATK
Consider B5, for which the “adenosine deaminase activity of the supernatant of HEK293T cotransfected with WT and variant ADA2 (heterozygous), relative to WT50%” value in series [2] was 23 % of WT50%.

B6: ADA2 variant G47V, myc-FLAG-tagged (pCMV6) (enzyme, human, UniProt Q9NZK5-1 30-511, looked up)
chain: IDETRAHLLLKEKMMRLVGRLVLNTKEELANERLMTLKIAEMKEAMRTLIFPPSMHFFQAKHLIERSQVFNILRMMPKGAALHLHDIGIVTMDWLVRNVTYRPHCHICFTPRGIMQFRFAHPTPRPSEKCSKWILLEDYRKRVQNVTEFDDSLLRNFTLVTQHPEVIYTNQNVVWSKFETIFFTISGLIHYAPVFRDYVFRSMQEFYEDNVLYMEIRARLLPVYELSGEHHDEEWSVKTYQEVAQKFVETHPEFIGIKIIYSDHRSKDVAVIAESIRMAMGLRIKFPTVVAGFDLVGHEDTGHSLHDYKEALMIPAKDGVKLPYFFHAGETDWQGTSIDRNILDALMLNTTRIGHGFALSKHPAVRTYSWKKDIPIEVCPISNQVLKLVSDLRNHPVATLMATGHPMVISSDDPAMFGAKGLSYDFYEVFMGIGGMKADLRTLKQLAMNSIKYSTLLESEKNTFMEIWKKRWDKFIADVATK
As for B6, the “adenosine deaminase activity of the supernatant of HEK293T cotransfected with WT and variant ADA2 (heterozygous), relative to WT50%” value in series [2] was 58 % of WT50%.

B7: ADA2 variant E328K, myc-FLAG-tagged (pCMV6) (enzyme, human, UniProt Q9NZK5-1 30-511, looked up)
chain: IDETRAHLLLKEKMMRLGGRLVLNTKEELANERLMTLKIAEMKEAMRTLIFPPSMHFFQAKHLIERSQVFNILRMMPKGAALHLHDIGIVTMDWLVRNVTYRPHCHICFTPRGIMQFRFAHPTPRPSEKCSKWILLEDYRKRVQNVTEFDDSLLRNFTLVTQHPEVIYTNQNVVWSKFETIFFTISGLIHYAPVFRDYVFRSMQEFYEDNVLYMEIRARLLPVYELSGEHHDEEWSVKTYQEVAQKFVETHPEFIGIKIIYSDHRSKDVAVIAESIRMAMGLRIKFPTVVAGFDLVGHKDTGHSLHDYKEALMIPAKDGVKLPYFFHAGETDWQGTSIDRNILDALMLNTTRIGHGFALSKHPAVRTYSWKKDIPIEVCPISNQVLKLVSDLRNHPVATLMATGHPMVISSDDPAMFGAKGLSYDFYEVFMGIGGMKADLRTLKQLAMNSIKYSTLLESEKNTFMEIWKKRWDKFIADVATK
B7: the “adenosine deaminase activity of whole-cell lysate and supernatant of HEK293T cotransfected with WT and variant ADA2 (heterozygous), relative to WT50%” value in series [2] is < 75 % of WT50%.
